Consider two substances from paper PMC4673700.

Where two headings read alike, the source gives them in different places.

For one test, the target named is Aflibercept (human). Put plainly: BLI; BLItz; aflibercept, PNGase F-treated aflibercept, VEGFR1-Fc or VEGFR2-Fc immobilised on Protein A-coated biosensors; GST-galectin-1 as analyte at various concentrations; PBS; values of empty sensors subtracted.
Test [1] has as its target PNGase F-treated aflibercept (human). Described as above.
For test [2] the target is unchanged. The test is described as above. The source holds these as a separate data set.
In test [3] the target is GST-fused galectin-1 protein (human) (UniProt P09382).
Chain of GST-fused galectin-1 protein (human) (P09382 whole entry, the tested form may be a part): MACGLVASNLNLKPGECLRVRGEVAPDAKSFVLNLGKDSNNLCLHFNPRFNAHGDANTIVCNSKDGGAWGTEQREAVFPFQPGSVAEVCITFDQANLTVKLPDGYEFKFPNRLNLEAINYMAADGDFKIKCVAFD

Chain of GST-fused galectin-1 protein (P09382 whole entry, the tested form may be a part): as above
Chain of Aflibercept (Fc fusion) (chain): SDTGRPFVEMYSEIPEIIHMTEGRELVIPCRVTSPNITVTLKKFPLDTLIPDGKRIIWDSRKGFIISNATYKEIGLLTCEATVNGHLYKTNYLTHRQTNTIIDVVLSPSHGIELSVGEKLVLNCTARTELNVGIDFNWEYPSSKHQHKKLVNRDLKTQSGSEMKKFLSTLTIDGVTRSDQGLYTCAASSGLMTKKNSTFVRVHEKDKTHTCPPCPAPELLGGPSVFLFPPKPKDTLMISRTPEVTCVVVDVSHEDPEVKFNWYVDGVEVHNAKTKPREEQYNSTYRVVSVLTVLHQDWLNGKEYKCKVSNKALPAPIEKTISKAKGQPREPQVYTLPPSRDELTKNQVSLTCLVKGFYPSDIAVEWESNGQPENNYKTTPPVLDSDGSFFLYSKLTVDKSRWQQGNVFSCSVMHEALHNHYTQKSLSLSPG

“GST-fused galectin-1 protein (from UniProt P09382 1-135) (natural protein)”: the values for the Kd (with Aflibercept (human); in test [1]; in test [2]) were 23.7 nM, 868 nM and 869 nM, respectively. For the same substance, the values for the koff (with Aflibercept (human); in test [1]) were 0.000371 s⁻¹ and 0.00531 s⁻¹, respectively. In addition, the kon turned out to be 15700 M⁻¹ s⁻¹ with Aflibercept (human) and 6120 M⁻¹ s⁻¹ in test [1].
Turning to Aflibercept (Fc fusion), in test [3], the HRMEC proliferation (RealTime-Glo, relative to PBS) with 10 μg/ml galectin-1 for 48 h with 7.5 μg/ml aflibercept (2.77 without aflibercept) was determined as 0.96 fold change.

As usually defined, the Kd is the free concentration of one partner at which half of the binding sites on the other are occupied at equilibrium, for simple one-to-one binding. One may read the koff as a measure of how fast the partners let go of each other. A lower koff goes with a long-lived complex. By kon is commonly meant the rate constant with which the complex forms. Higher therefore signals faster complex formation.
